Experimental data from article doi:10.1101/488049 (bioRxiv, 2018).

Molecular target: T1, KIF1C-GFP (recombinant full-length human KIF1C, 6His-KIF1C-GFP) (human, UniProt O43896 1-1103)
T1 sequence (looked up): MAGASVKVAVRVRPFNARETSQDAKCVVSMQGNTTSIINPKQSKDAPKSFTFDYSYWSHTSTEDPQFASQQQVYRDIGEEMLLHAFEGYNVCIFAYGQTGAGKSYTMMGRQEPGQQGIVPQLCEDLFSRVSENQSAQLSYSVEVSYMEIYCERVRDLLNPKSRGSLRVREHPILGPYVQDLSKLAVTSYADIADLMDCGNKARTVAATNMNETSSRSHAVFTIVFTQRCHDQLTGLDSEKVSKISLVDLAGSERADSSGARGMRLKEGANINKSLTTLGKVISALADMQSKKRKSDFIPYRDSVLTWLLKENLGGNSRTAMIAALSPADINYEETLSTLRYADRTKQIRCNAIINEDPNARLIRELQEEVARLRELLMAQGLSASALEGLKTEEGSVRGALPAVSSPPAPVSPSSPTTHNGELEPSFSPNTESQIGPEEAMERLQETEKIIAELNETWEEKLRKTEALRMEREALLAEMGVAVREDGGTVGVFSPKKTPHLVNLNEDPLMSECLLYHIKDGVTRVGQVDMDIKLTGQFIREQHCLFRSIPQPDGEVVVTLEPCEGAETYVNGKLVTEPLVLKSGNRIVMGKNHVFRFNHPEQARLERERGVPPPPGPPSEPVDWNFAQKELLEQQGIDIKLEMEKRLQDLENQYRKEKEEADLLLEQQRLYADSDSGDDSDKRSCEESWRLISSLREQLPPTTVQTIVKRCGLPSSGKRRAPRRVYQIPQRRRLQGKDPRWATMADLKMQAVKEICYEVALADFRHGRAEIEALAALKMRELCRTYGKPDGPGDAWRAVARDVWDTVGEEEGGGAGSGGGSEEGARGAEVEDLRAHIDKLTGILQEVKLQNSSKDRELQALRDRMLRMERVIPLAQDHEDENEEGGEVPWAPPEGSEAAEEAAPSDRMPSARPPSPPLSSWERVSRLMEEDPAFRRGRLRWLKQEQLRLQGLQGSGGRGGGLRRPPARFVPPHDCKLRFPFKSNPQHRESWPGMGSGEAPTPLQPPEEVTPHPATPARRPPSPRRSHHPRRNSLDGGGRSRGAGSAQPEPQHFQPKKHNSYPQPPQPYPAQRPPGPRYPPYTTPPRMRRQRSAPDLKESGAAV
Assay: cell-based or functional assay

landing rate of KIF1C-GFP on microtubules in single molecule assays, 320 nM KIF1C preincubated with 500 nM Hook3-647: 2 fold
B1: Hook3-SNAPf labelled with Alexa647 (recombinant human Hook3 with a C-terminal SNAP-tag) (natural protein, UniProt Q86VS8 1-718, looked up)
chain: MFSVESLERAELCESLLTWIQTFNVDAPCQTVEDLTNGVVMAQVLQKIDPAYFDENWLNRIKTEVGDNWRLKISNLKKILKGILDYNHEILGQQINDFTLPDVNLIGEHSDAAELGRMLQLILGCAVNCEQKQEYIQAIMMMEESVQHVVMTAIQELMSKESPVSAGNDAYVDLDRQLKKTTEELNEALSAKEEIAQRCHELDMQVAALQEEKSSLLAENQVLMERLNQSDSIEDPNSPAGRRHLQLQTQLEQLQEETFRLEAAKDDYRIRCEELEKEISELRQQNDELTTLADEAQSLKDEIDVLRHSSDKVSKLEGQVESYKKKLEDLGDLRRQVKLLEEKNTMYMQNTVSLEEELRKANAARSQLETYKRQVVELQNRLSEESKKADKLDFEYKRLKEKVDSLQKEKDRLRTERDSLKETIEELRCVQAQEGQLTTQGLMPLGSQESSDSLAAEIVTPEIREKLIRLQHENKMLKLNQEGSDNEKIALLQSLLDDANLRKNELETENRLVNQRLLEVQSQVEELQKSLQDQGSKAEDSVLLKKKLEEHLEKLHEANNELQKKRAIIEDLEPRFNNSSLKIEELQEALRKKEEEMKQMEERYKKYLEKAKSVIRTLDPKQNQGAAPEIQALKNQLQERDRLFHSLEKEYEKTKSQREMEEKYIVSAWYNMGMTLHKKAAEDRLASTGSGQSFLARQRQATSSRRSYPGHVQPATAR
modifications: Alexa Fluor 647 on the SNAP tag (SNAP-Surface Alexa Fluor 647)
